Target: SARS-CoV-2 spike receptor binding domain, wild-type (S-RBD) (SARS-CoV-2, UniProt P0DTC2 319-541)
Assay: BLI (Octet RED96), biotin S-RBD on SA sensor, 1:1 fit

B1: S-E6 trimer (T4F) (other)
heavy: QVTLRESGPGLVKPSETLSLTCAVSGGSLSSVNYYWSWIRQHPGKGLEWIGYIYYSGSTNYNPSLKSRVTMSLDTSKNQFSLKLSSVTAADTAVYYCATPGAIMGALHIWGQGTLVTVSSASTKGPSVFPLAPSSKSTSGGTAALGCLVKDYFPEPVTVSWNSGALTSGVHTFPAVLQSSGLYSLSSVVTVPSSSLGTQTYICNVNHKPSNTKVDKKVEPPKSGGGGSGGGGSGGGGSPGSGYIPEAPRDGQAYVRKDGEWVLLSTFLGHHHHHH
light: QAVLTQPSSASSTPGQRVIISCSGSSSNIGSNTVSWYQQVPGAAPKLLIYFDYRRPSGVPDRFSGTRSGTSASLGISGLQSEDEADYYCAAWDDSLSAWVFGRGTKLTVLGGLGGLVDYKGQPKAAPSVTLFPPSSEELQANKATLVCLISDFYPGAVTVAWKADSSPVKAGVETTTPSKQSNNKYAASSYLSLTPEQWKSHRSYSCQVTHEGSTVEKTVAPTECS
notes: also called trimer S-E6; trimeric S-E6
B1 showed a Kd of 0.0101 nM.

Source: patent US20220213176A1 (SHANGHAITECH UNIVERSITY, published 2022)
